Results on one substance are retold here after patent publication US20230265421.

The series concerns T1, dFrCas9 (Faecalibaculum rodentium).
T1 sequence: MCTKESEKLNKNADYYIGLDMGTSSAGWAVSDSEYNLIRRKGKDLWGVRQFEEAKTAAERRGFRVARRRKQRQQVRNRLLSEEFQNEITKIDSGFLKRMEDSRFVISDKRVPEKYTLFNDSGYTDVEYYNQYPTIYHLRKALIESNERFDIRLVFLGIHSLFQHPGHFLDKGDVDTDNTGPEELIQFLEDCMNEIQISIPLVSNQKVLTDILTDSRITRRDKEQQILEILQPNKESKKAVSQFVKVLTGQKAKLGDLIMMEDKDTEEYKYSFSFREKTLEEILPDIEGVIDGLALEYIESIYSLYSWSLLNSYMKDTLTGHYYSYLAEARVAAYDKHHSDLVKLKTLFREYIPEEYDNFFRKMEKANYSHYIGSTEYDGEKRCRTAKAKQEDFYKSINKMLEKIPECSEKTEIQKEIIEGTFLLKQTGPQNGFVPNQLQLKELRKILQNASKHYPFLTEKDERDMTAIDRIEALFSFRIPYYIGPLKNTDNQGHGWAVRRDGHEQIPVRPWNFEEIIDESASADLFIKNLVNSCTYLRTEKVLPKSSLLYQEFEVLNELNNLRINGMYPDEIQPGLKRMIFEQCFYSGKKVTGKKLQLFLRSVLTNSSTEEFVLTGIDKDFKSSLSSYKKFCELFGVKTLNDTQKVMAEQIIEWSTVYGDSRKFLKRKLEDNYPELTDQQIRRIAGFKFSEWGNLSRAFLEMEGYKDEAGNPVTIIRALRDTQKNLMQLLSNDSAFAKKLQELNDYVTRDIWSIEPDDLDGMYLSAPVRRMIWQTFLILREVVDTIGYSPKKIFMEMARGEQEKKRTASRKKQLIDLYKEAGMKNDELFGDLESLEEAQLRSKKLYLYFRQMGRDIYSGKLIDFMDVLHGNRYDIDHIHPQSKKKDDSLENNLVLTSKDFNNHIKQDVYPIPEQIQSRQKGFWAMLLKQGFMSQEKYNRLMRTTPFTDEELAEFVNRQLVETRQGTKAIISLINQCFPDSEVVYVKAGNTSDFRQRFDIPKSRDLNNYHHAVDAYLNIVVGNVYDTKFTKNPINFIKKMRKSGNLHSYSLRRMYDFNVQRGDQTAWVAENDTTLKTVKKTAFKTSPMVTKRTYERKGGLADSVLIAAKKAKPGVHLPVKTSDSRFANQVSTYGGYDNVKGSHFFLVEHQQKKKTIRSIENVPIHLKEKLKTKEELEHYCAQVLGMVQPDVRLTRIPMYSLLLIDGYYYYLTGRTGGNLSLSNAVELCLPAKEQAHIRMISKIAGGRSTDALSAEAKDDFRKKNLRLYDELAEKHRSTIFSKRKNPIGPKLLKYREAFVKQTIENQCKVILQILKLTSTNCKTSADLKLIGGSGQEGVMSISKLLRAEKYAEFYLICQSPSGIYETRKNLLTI
The series is described as follows: cell_activity. As to conditions: CRISPRi by binding TATA-box; PAM NNTA.

As for ABCA1 TATA-box sgRNA ; ABCA1 TATA-box, the activity (% decrease of expression) worked out at 61.7.
